Article PMC3634854, “S100A12 Suppresses Pro-inflammatory, but Not Pro-Thrombotic Functions of Serum Amyloid A” (PLoS ONE, 2013)
Values joined by “and” are separate entries in the source; they are usually repeats but may differ in a detail not shown here. Identical values can stand only once.

Target: the molecule itself
Test: cross-linking; S100A12 (1 µg) and SAA (1 µg), alone or together, with bis[sulfosuccinimidyl] suberate (BS3, 5 µM) in PBS, in the presence or absence of 1 mM Ca2+, 30 min at RT in the dark; 10% SDS-PAGE under non-reducing conditions, silver stain

B1: Human recombinant S100A12 (natural protein, UniProt P80511 1-92, looked up)
chain: MTKLEEHLEGIVNIFHQYSVRKGHFDTLSKGELKQLLTKELANTIKNIKDKAVIDEIFQGLDANQDEQVDFQEFISLVAIALKAAHYHTHKE
notes: S100A12, human, recombinant
stoichiometry N: 2 and 4
